Assay results as given in publication PMC5673489 (Cell, 2017).

Legend:
[1] = target: FIT-1 bispecific antibody (Fabs-in-tandem-Ig, ZKA190 outer Fab, ZKA185 inner Fab, IgG1 LALA) (human); test: SPR
[2] = target: T1, recombinant DIII of ZIKV E protein (Brazil 2015 strain SPH2015) (Zika virus, Brazil 2015 strain SPH2015, strain); test: SPR
T1 chain: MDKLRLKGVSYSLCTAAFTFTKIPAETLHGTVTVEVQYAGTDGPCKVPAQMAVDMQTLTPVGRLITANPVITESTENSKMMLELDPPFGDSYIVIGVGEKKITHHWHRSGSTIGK

[3] = target: T1, recombinant DIII of ZIKV E protein …; test: NMR titration

Work on “recombinant E protein from ZIKV (natural protein)” yielded a Kd [1] of less than 1 pM.

B1: ZKA190 IgG (antibody, V domains shown)
VH: QVQLVESGGGVVQPGRSLRLSCAASGFTFSKYGMHWVRQAPGKGLEWVAVISYEGSNKYYADSVKGRFTISRDNSKNTLYLQMNSLRAEDTAVYYCAKSGTQYYDTTGYEYRGLEYFGYWGQGTLVTVS
VL: EIVLTQSPGTLSLSPGERATLSCRASQSVSSSYLAWYQQKRGQAPRLLIYDASSRATGIPDRFSGSGSGTDFTLTISRLEPEDFAVYYCQQYGRSRWTFGQGTKVEIK
B1: binds [2].

B2: ZKA190 Fab (Fab, V domains shown)
VH: QVQLVESGGGVVQPGRSLRLSCAASGFTFSKYGMHWVRQAPGKGLEWVAVISYEGSNKYYADSVKGRFTISRDNSKNTLYLQMNSLRAEDTAVYYCAKSGTQYYDTTGYEYRGLEYFGYWGQGTLVTVS
VL: EIVLTQSPGTLSLSPGERATLSCRASQSVSSSYLAWYQQKRGQAPRLLIYDASSRATGIPDRFSGSGSGTDFTLTISRLEPEDFAVYYCQQYGRSRWTFGQGTKVEIK
B2: binds [3].
